Assay results reported in paper PMC10516938, “Conformational dynamics of cohesin/Scc2 loading complex are regulated by Smc3 acetylation and ATP binding” (Nature Communications, 2023).

Target: T1, Smc3^QQ W483R R1008I K1004C (S. cerevisiae, UniProt P47037 1-1230, K112Q | K113Q | W483R | K1004C | R1008I)
T1 construct: Smc3, S. cerevisiae; also called smc3-QQ K1004C with R1008I and W483R; source: S. cerevisiae W303, late G1 arrested cells, whole-cell extract
T1 sequence (looked up): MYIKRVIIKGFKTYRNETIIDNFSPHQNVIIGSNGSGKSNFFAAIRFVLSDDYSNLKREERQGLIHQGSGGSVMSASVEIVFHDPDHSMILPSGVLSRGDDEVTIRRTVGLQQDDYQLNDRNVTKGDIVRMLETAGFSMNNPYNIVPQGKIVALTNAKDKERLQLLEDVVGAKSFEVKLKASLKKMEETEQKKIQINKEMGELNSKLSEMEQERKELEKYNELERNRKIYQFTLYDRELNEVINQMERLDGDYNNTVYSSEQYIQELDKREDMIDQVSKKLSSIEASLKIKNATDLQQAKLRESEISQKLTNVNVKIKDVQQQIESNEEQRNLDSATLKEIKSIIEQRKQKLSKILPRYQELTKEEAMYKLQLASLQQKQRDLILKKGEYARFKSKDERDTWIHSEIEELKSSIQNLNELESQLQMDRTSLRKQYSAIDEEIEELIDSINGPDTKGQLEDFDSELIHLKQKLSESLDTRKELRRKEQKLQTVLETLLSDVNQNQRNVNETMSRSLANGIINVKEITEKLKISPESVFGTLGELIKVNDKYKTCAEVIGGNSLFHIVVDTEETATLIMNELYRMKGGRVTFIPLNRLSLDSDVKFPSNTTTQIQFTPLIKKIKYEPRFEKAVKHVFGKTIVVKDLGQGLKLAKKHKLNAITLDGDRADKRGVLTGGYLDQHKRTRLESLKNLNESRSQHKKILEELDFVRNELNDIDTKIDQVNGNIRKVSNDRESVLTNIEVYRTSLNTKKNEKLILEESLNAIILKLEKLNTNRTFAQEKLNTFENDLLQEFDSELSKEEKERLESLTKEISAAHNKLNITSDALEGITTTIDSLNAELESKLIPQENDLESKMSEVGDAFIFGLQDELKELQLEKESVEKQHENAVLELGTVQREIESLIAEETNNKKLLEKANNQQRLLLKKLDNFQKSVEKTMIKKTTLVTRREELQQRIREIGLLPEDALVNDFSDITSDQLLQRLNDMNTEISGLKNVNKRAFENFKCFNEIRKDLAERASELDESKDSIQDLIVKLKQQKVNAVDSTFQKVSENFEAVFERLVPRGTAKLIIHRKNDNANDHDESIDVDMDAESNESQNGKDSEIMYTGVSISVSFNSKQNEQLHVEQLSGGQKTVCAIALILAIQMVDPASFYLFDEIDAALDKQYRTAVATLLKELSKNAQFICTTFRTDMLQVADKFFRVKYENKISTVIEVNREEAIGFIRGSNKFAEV
Experiment: cross-linking; in vivo BMOE cross-link of cysteine pairs in yeast cells arrested in late G1 by non-degradable Sic1(9m); Scc1-PK immunoprecipitated, western blot, band intensities quantified
Conditions: partners not purified

crosslink relative to wild type: ~70%
B1: Scc2 D369C (natural protein, S. cerevisiae, UniProt Q04002 1-1493, looked up)
chain: MSYPGKDKNIPGRIIEALEDLPLSYLVPKDGLAALVNAPMRVSLPFDKTIFTSADDGRDVNINVLGTANSTTSSIKNEAEKERLVFKRPSNFTSSANSVDYVPTNFLEGLSPLAQSVLSTHKGLNDSINIEKKSEIVSRPEAKHKLESVTSNAGNLSFNDNSSNKKTKTSTGVTMTQANLAEQYLNDLKNILDIVGFDQNSAEIGNIEYWLQLPNKKFVLTTNCLTKLQMTIKNITDNPQLSNSIEITWLLRLLDVMVCNIKFSKSSLKMGLDDSMLRYIALLSTIVLFNIFLLGKNDSNLHRESYIMEPVNFLSDLIESLKILTIEYGSLKIEFDTFQEALELLPKYIRNGPFLDDNVTAKLVYIFSCLLMNNDIEATTNIQFQSFWDNVKRISSDILVSLFGSFDQQRGFIIEELLSHIEKLPTKRIQKKLRKVGNQNIYITDFTFTLMSMLENINCYSFCNQMKDIAPENIDLLKNEYKKQEEFLFNIVEHINDTILERFFKNPSALRYVIDNFVQDLLLLISSPQWPVTEKILSSLLKRLLSVYSPSMQVSANIETICLQLIGNIGSTIFDIKCSTRDHEDNNLIKMINYPETLPHFFKSFEECIAYNETIKCRRSATRFLWNLRLGTILILEEYTKDAKEQIITVDNELKKILEQIKDGGLGPELENREADFSTIKLDYFSILHAFELLNLYDPYLKLILSLLAKDKIKLRSTAIKCLSMLASKDKVILSNPMVKETIHRRLNDSSASVKDAILDLVSINSSYFEFYQQINNNYNDDSIMVRKHVLRINEKMYDETNDIVTKVYVIARILMKIEDEEDNIIDMARLILLNRWILKVHEVLDQPEKLKEISSSVLLVMSRVAIMNEKCSQLFDLFLNFYLLNKEAHSKEAYDKITHVLTILTDFLVQKIVELNSDDTNEKNSIVDKQNFLNLLAKFADSTVSFLTKDHITALYPYMVSDEKSDFHYYILQVFRCTFEKLANFKQKFLYDLETTLLSRLPKMNVREIDEAMPLIWSVATHRHDTARVAKACSSCLSHLHPYINKANNEEAAIVVDGKLQRLIYLSTGFARFCFPKPSNDKIAFLQEGETLYEHITKCLLVLSKDKITHVIRRVAVKNLTKLCGNHPKLFNSRHVLHLLDKEFQSDQLDIKLVILESLYDLFLLEERKSVRNTGVNSTLSSNSILKKKLLKTNRVEFANDGVCSALATRFLDNILQLCLLRDLKNSLVAIRLLKLILKFGYTNPSHSIPTVIALFASTSQYIRHVAYELLEDLFEKYETLVFSSLSRGVTKAIHYSIHTDEKYYYKHDHFLSLLEKLCGTGKKNGPKFFKVLKRIMQSYLDDITDLTSTNSSVQKSIFVLCTNISNITFVSQYDLVSLLKTIDLTTDRLKEVIMDEIGDNVSSLSVSEEKLSGIILIQLSLQDLGTYLLHLYGLRDDVLLLDIVEESELKNKQLPAKKPDISKFSAQLENIEQYSSNGKLLTYFRKHVKDT
notes: Scc2, S. cerevisiae; source: S. cerevisiae W303, in vivo, whole-cell extract
